Data on nine molecules can be found in US20250027068A1.

To fix the notation:
B1: VRT-10 (Fc fusion)
chain: TITSVWTKGVTPPTPEDFRYNNEDVLHAPYVANQGWYDITKTFDGKDNLLCGAATAGNMLHWWFDQNKEEIERYLKKHPEKQKIIFNNQELFDVKAAIDTKDSQTNSKLFNYFRDKAFPNLSARQLGVMPDLVLDMFINGYYLNLGKTQSTDVNRPYQDKDKRGGIFDAVFTRGDQTTLLTARHDLKNKGLNEISDLIKQELTEGKALALSHTYANVRINHVINLWGADFDAEGNLIAIYVTDSDANASIGMKKYFVGVNANGKVAISAKKIEGDNIGAQVLGLFTLSTGQDIWQKLSDKTHTCPPCPAPEAAGAPSVFLFPPKPKDTLMISRTPEVTCVVVDVSHEDPEVKFNWYVDGVEVHNAKTKPREEQQNSTYRVVSVLTVLHQDWLNGKEYKCKVSNKALKAPIEKTISKAKGQPREPQVYTLPPSRDELTKNQVSLTCLVKGFYPSDIAVEWESNGQPENNYKTTPPVLDSDGSFFLYSKLTVDKSRWQQGNVFSCSVMHEALHNHYTQKSLSLSPG
B2: VRT-1 (Fc fusion)
chain: VTSVWTKGVTPPANFTQGEDVFHAPYVANQGWYDITKTFNGKDDLLCGAATAGNMLHWWFDQNKDQIKRYLEEHPEKQKINFNGEQMFDVKEAIDTKNHQLDSKLFEYFKEKAFPYLSTKHLGVFPDHVIDMFINGYRLSLTNHGPTPVKEGSKDPRGGIFDAVFTRGDQSKLLTSRHDFKEKNLKEISDLIKKELTEGKALGLSHTYANVRINHVINLWGADFDSNGNLKAIYVTDSDSNASIGMKKYFVGVNSAGKVAISAKEIKEDNIGAQVLGLFTLSTGQDSWNQTNDKTHTCPPCPAPEAAGAPSVFLFPPKPKDTLMISRTPEVTCVVVDVSHEDPEVKFNWYVDGVEVHNAKTKPREEQQNSTYRVVSVLTVLHQDWLNGKEYKCKVSNKALKAPIEKTISKAKGQPREPQVYTLPPSRDELTKNQVSLTCLVKGFYPSDIAVEWESNGQPENNYKTTPPVLDSDGSFFLYSKLTVDKSRWQQGNVFSCSVMHEALHNHYTQKSLSLSPG
B3: VRT-6 (Fc fusion)
chain: VTSVWTKGVTPPANFTQGEDVFHAPYVANQGWYDITKTFNGKDDLLCGAATAGNMLHWWFDQNKDQIERYLKEHPEKQKINFNGEQMFDVKEAIDTKDSQTDSKLFEYFKEKAFPYLSTKHLGVFPDHVLDMFINGYRLSLTNHGPTPVKEGSKDPRGGIFDAVFTRGDQSKLLTSRHDFKEKTLKEISDLIKQELTEGKALGLSHTYANVRINHVINLWGADFDSEGNLKAIYVTDSDSNASIGMKKYFVGVNSAGKVAISAKEIKEDNIGAQVLGLFTLSTGQDIWNQTNDKTHTCPPCPAPEAAGAPSVFLFPPKPKDTLMISRTPEVTCVVVDVSHEDPEVKFNWYVDGVEVHNAKTKPREEQQNSTYRVVSVLTVLHQDWLNGKEYKCKVSNKALKAPIEKTISKAKGQPREPQVYTLPPSRDELTKNQVSLTCLVKGFYPSDIAVEWESNGQPENNYKTTPPVLDSDGSFFLYSKLTVDKSRWQQGNVFSCSVMHEALHNHYTQKSLSLSPG
B4: VRT-2 (Fc fusion)
chain: VTSVWTKGVTPPAKFTQGEDVFHAPYVANQGWYDITKTFNGKDDLLCGAATAGNMLHWWFDQNKEKIEAYLKKHPDKQKIMFGDQELLDVRKVINTKGDQTNSELFNYFRDKAFPGLSARRIGVMPDLVLDMFINGYYLNVYKTQTTDVNRTYQEKDRRGGIFDAVFTRGDQSKLLTSRHDFKEKNLKEISDLIKKELTEGKALGLSHTYANVRINHVINLWGADFDSNGNLKAIYVTDSDSNASIGMKKYFVGVNSAGKVAISAKEIKEDNIGAQVLGLFTLSTGQDSWNQTNDKTHTCPPCPAPEAAGAPSVFLFPPKPKDTLMISRTPEVTCVVVDVSHEDPEVKFNWYVDGVEVHNAKTKPREEQQNSTYRVVSVLTVLHQDWLNGKEYKCKVSNKALKAPIEKTISKAKGQPREPQVYTLPPSRDELTKNQVSLTCLVKGFYPSDIAVEWESNGQPENNYKTTPPVLDSDGSFFLYSKLTVDKSRWQQGNVFSCSVMHEALHNHYTQKSLSLSPG
B5: VRT-4 (Fc fusion)
chain: SQTEDSESLQRLRDIEDFQAEKKMQNVVYTKWLDGVDVKDHDFRKIVDGNIAYYATPLLNGRGFYDINKDFNRDSDKCAAAVAANMFHYWLDINRDNVDRFLRQNPEKHGIIELPDGQLKLSDFLNTYESDHGYRDKSKLFDFISNNFNGPVWTDKLLDNYINGYAYNYKYGRTIEDPTKNTSKINFFKEVFNEKILTNNHSIRNQNEFSVLLSEALYTGKAIGLSYGPAGLRHSLGHIISVWGADLDADGNVVAIYVTDSDDKKLTIGDERVGLKRYKISTDDENRLRLTAYEETHNTGGQIRGLWTLDTGKYAWADYFDKTEQTGTDQAEQDKTHTCPPCPAPEAAGAPSVFLFPPKPKDTLMISRTPEVTCVVVDVSHEDPEVKFNWYVDGVEVHNAKTKPREEQQNSTYRVVSVLTVLHQDWLNGKEYKCKVSNKALKAPIEKTISKAKGQPREPQVYTLPPSRDELTKNQVSLTCLVKGFYPSDIAVEWESNGQPENNYKTTPPVLDSDGSFFLYSKLTVDKSRWQQGNVFSCSVMHEALHNHYTQKSLSLSPG
B6: VRT-8 (Fc fusion)
chain: VTSVWTKGVTPPADFTQGEDVFHAPYVANQGWYDITKTFNGKDDLLCGAATAGNMLHWWFDQNKEYIEAYLKKHPEKQKIMFGDQELLDVRKAINTKGSQKNSELFNYFRDKAFPNLSARRLGVMPDLVLDMFINGYYLNVTKTQTTDVNRTYQEKDKRGGIFDAVFTRGDQSKLLTSRHDFKEKGLKEISDLIKQELTEGKALGLSHTYANVRINHVINLWGADFDSDGNLKAIYVTDSDSNASIGMKKYFVGVNSAGKVAISAKEIKEDNIGAQVLGLFTLSTGQDIWNQTNDKTHTCPPCPAPEAAGAPSVFLFPPKPKDTLMISRTPEVTCVVVDVSHEDPEVKFNWYVDGVEVHNAKTKPREEQQNSTYRVVSVLTVLHQDWLNGKEYKCKVSNKALKAPIEKTISKAKGQPREPQVYTLPPSRDELTKNQVSLTCLVKGFYPSDIAVEWESNGQPENNYKTTPPVLDSDGSFFLYSKLTVDKSRWQQGNVFSCSVMHEALHNHYTQKSLSLSPG
B7: VRT-5 (Fc fusion)
chain: VTSVWTKGVTPPANFTQGEDVFHAPYKANQGWYDITKTFNGKDDLLCGAATAGNMLHWWFDQNKDQIEAYLKEHPEKQKINFNGEQMFDVKEAIDTKDDQTNSKLFEYFKEKAFPYLSTKHLGVFPDHVLDMFINGYRLSLTNHGPTPVKEGSKDPRGGIFDAVFTRGDQSKLLTSRHDFKEKTLKEISDLIKQELTEGKALALSHTYANVRINHVINLWGADFDSNGNLEAIYVTDSDSNASIGMKKYFVGVNSAGKVAISAKEIEDDNIGAQVLGLFTLSTGQDIWNQTNDKTHTCPPCPAPEAAGAPSVFLFPPKPKDTLMISRTPEVTCVVVDVSHEDPEVKFNWYVDGVEVHNAKTKPREEQQNSTYRVVSVLTVLHQDWLNGKEYKCKVSNKALKAPIEKTISKAKGQPREPQVYTLPPSRDELTKNQVSLTCLVKGFYPSDIAVEWESNGQPENNYKTTPPVLDSDGSFFLYSKLTVDKSRWQQGNVFSCSVMHEALHNHYTQKSLSLSPG
B8: VRT-7 (Fc fusion)
chain: VTSVWTKGVTPPTNFTYGEDVLHAPYVANQGWYDITKTFNGKDDLLCGAATAGNMLHWWFDQNKEQIENYLKKHPEKQKINFNGEQMFDVKEAIDTKDSQLDSKLFEYFKEKAFPYLSTKHLGVFPDHVIDMFINGYRLSLTNHGPTPVKRGSKDPRGGIFDAVFTRGDQSKLLTNRHDFKEKTLKEISDLIKQELTEGKALGISHTYANVRINHVINLWGADFDAEGNLEAIYVTDSDSNASIGMKKYFVGVNSNGKVAISAKEIEEDNIGAQVLGLFTLSTGQDIWNQTNDKTHTCPPCPAPEAAGAPSVFLFPPKPKDTLMISRTPEVTCVVVDVSHEDPEVKFNWYVDGVEVHNAKTKPREEQQNSTYRVVSVLTVLHQDWLNGKEYKCKVSNKALKAPIEKTISKAKGQPREPQVYTLPPSRDELTKNQVSLTCLVKGFYPSDIAVEWESNGQPENNYKTTPPVLDSDGSFFLYSKLTVDKSRWQQGNVFSCSVMHEALHNHYTQKSLSLSPG
B9: VRT-3 (Fc fusion)
chain: QITSVWTKGVTPLTPEQFRYNNEDVIHAPYLAHQGWYDITKAFDGKDNLLCGAATAGNMLHWWFDQNKTEIEAYLSKHPEKQKIIFNNQELFDLKAAIDTKDSQTNSQLFNYFRDKAFPNLSARQLGVMPDLVLDMFINGYYLNVFKTQSTDVNRPYQDKDKRGGIFDAVFTRGDQTTLLTARHDLKNKGLNDISTIIKQELTEGRALALSHTYANVSISHVINLWGADFNAEGNLEAIYVTDSDANASIGMKKYFVGINAHGHVAISAKKIEGENIGAQVLGLFTLSSGKDIWQKLSDKTHTCPPCPAPEAAGAPSVFLFPPKPKDTLMISRTPEVTCVVVDVSHEDPEVKFNWYVDGVEVHNAKTKPREEQQNSTYRVVSVLTVLHQDWLNGKEYKCKVSNKALKAPIEKTISKAKGQPREPQVYTLPPSRDELTKNQVSLTCLVKGFYPSDIAVEWESNGQPENNYKTTPPVLDSDGSFFLYSKLTVDKSRWQQGNVFSCSVMHEALHNHYTQKSLSLSPG

For the assay, the target named is pooled human IgG (human). As to the kind of experiment: cell-based or functional assay.
B1 yielded an Enzyme Activity Endpoint Assay: Fab′2 of 56 ng/µL, an Enzyme Activity Endpoint Assay: Fc of 266 ng/µL, an Enzyme Activity Endpoint Assay: IgG of 71 ng/µL and an Enzyme Activity Endpoint Assay: scIgG of 169 ng/µL.

B2 registered an Enzyme Activity Endpoint Assay: Fab′2 of 175 ng/µL, an Enzyme Activity Endpoint Assay: Fc of 334 ng/µL, an Enzyme Activity Endpoint Assay: IgG of 197 ng/µL and an Enzyme Activity Endpoint Assay: scIgG of 137 ng/µL.

B3: the Enzyme Activity Endpoint Assay: Fab′2 was found to be 132 ng/µL, the Enzyme Activity Endpoint Assay: Fc was found to be 304 ng/µL, the Enzyme Activity Endpoint Assay: IgG amounted to 78 ng/µL and the Enzyme Activity Endpoint Assay: scIgG came to 172 ng/µL.

As for B4, the Enzyme Activity Endpoint Assay: Fab′2 worked out at 97 ng/µL, the Enzyme Activity Endpoint Assay: Fc was determined as 238 ng/µL, the Enzyme Activity Endpoint Assay: IgG came out at 247 ng/µL and the Enzyme Activity Endpoint Assay: scIgG came out at 100 ng/µL.

As for B5, the Enzyme Activity Endpoint Assay: Fab′2 was 0 ng/µL, the Enzyme Activity Endpoint Assay: Fc was 29 ng/µL, the Enzyme Activity Endpoint Assay: IgG turned out to be 990 ng/µL and the Enzyme Activity Endpoint Assay: scIgG was 24 ng/µL.

As for B6, the Enzyme Activity Endpoint Assay: Fab′2 is 0 ng/µL, the Enzyme Activity Endpoint Assay: Fc came out at 126 ng/µL, the Enzyme Activity Endpoint Assay: IgG was found to be 652 ng/µL and the Enzyme Activity Endpoint Assay: scIgG was found to be 125 ng/µL.

In the case of B7, the Enzyme Activity Endpoint Assay: Fab′2 worked out at 137 ng/µL, the Enzyme Activity Endpoint Assay: Fc came to 294 ng/µL, the Enzyme Activity Endpoint Assay: IgG turned out to be 89 ng/µL and the Enzyme Activity Endpoint Assay: scIgG came to 151 ng/µL.

In turn, B8 displayed an Enzyme Activity Endpoint Assay: Fab′2 of 61 ng/µL, an Enzyme Activity Endpoint Assay: Fc of 258 ng/µL, an Enzyme Activity Endpoint Assay: IgG of 178 ng/µL and an Enzyme Activity Endpoint Assay: scIgG of 249 ng/µL.

As for B9, the Enzyme Activity Endpoint Assay: Fab′2 came out at 0 ng/µL, the Enzyme Activity Endpoint Assay: Fc is 99 ng/µL, the Enzyme Activity Endpoint Assay: IgG amounted to 808 ng/µL and the Enzyme Activity Endpoint Assay: scIgG came to 50 ng/µL.
